Target: human paraoxonase (PON1A) (human) (UniProt P27169)
Experiment: cell-based or functional assay

Chain of UniProt P27169 (P27169 2-355 limits assumed): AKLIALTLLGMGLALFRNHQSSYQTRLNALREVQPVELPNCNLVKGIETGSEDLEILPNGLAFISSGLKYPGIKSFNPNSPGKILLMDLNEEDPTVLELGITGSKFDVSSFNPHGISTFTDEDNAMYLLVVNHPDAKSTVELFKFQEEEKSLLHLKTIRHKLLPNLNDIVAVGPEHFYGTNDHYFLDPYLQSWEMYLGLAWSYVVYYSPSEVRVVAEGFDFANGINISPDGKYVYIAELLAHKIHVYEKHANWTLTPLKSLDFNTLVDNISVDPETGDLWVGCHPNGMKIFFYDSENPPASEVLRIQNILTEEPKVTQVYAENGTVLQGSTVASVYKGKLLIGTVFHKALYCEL

| arylesterase activity, CHO-PON cells cultured 24 h with 10 µg/mL ApoA-I (U/mg cell protein) | increase in arylesterase activity compared to ApoA-IWT [%] | other results | Substance |
| --- | --- | --- | --- |
| 0.067 |  | reduction in arylesterase activity compared to ApoA-IWT: 30% | recombinant human ApoA-I K96C |
| 0.126 | 30 |  | recombinant human ApoA-I R10C |
| 0.125 | 30 |  | recombinant human ApoA-I R27C |
| 0.121 | 30 |  | recombinant human ApoA-I R61C |
|  |  | secreted PON arylesterase activity, CHO-PON cells cultured 24 h with 10 µg/mL ApoA-I (U/mg cell protein): 0.086 | recombinant human ApoA-I R151C (ApoA-IParis) |
|  |  | secreted PON arylesterase activity, CHO-PON cells cultured 24 h with 10 µg/mL ApoA-I (U/mg cell protein): 0.076 | recombinant human ApoA-I R173C (ApoA-IMilano) |
| 0.095 |  | ApoA-I concentration at which secreted PON activity is maximal (CHO-PON cell medium): 12 µg/mL; PON activity of baseline conditioned medium incubated 3 h at 37° C. with 10 µg/mL lipid-free ApoA-I postculture (relative to baseline): 94.4%; PON activity of cells grown with 10 µg/mL ApoA-I over cells grown without ApoA-I: 203%; arylesterase activity in medium at 24 h, CHO-PON cells in the presence of 10 µg/mL ApoA-I (unit/mg of cell protein): 0.087; increase in arylesterase activity on culturing CHO-PON cells with ApoA-I: 2.1 fold | recombinant human ApoA-I wild type (His-6 tagged) |
